Assay results from patent US20100233689A1.

Legend:
[1] = biological target: endogenous MISRII of the mouse ovarian cancer cell line MOVCAR7 (mouse) (UniProt Q8K592); assay: cell-based or functional assay
[2] = biological target: rat MISRII receptor (MIS type II receptor), transiently expressed in COS7 cells (rat) (UniProt Q62893); assay: cell-based or functional assay
rat MISRII receptor (MIS type II receptor), transiently expressed in COS7 cells (rat), sequence (Q62893 18-557): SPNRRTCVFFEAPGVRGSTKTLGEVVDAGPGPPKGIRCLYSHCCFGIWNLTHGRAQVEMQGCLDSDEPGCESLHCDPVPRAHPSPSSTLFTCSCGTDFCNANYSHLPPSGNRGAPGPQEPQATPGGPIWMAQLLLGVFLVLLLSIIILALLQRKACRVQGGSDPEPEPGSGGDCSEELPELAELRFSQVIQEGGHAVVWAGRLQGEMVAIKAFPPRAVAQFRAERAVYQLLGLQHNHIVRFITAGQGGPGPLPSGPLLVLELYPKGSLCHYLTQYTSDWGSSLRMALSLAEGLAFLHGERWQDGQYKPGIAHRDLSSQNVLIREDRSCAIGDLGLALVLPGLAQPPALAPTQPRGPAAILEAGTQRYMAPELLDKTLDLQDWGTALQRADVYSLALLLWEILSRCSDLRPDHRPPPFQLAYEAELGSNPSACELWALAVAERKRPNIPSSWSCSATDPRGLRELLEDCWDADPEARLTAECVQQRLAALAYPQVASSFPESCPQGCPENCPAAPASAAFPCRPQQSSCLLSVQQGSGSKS

endogenous MISRII of the mouse ovarian cancer cell line MOVCAR7 (mouse), sequence (Q8K592 16-568): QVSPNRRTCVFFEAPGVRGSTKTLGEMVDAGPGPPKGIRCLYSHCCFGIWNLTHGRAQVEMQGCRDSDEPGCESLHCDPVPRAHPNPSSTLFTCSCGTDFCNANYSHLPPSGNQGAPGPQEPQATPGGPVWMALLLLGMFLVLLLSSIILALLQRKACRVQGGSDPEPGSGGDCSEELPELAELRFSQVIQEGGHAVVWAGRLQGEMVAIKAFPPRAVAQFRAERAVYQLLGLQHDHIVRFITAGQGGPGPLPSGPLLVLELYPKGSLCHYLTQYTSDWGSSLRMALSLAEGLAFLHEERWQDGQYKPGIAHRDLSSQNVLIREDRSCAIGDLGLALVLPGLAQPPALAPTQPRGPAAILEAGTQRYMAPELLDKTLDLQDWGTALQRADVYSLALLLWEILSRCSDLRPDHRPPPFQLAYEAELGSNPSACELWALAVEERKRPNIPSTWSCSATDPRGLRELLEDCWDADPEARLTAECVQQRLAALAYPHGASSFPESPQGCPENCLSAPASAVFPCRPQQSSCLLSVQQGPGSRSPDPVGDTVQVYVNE

Substance: Recombinant human Mullerian Inhibiting Substance (MIS) (from UniProt P03971 25-560) (ligand)
- BRE-luciferase activity in MOVCAR7 cells, fold increase over untreated cells, 24 h [1]: 2 fold
- BRE-luciferase reporter expression in MISRII-transfected COS7 cells, fold induction, 24 h [2]: > 10 fold
